Reference: patent US20230203162A1 (NUMAB THERAPEUTICS, published 2023)
Numbering of substitutions follows the chain as printed. Names and notes keep the numbering of the source.

Assays:
[1] = target: T1, mouse serum albumin (mSA, Sigma-Aldrich A3559) (mouse, UniProt P07724 25-608); assay: SPR, albumin immobilized on CM5, scFv as analyte, 1:1 fit, pH 7.4; biphasic binding corrected with bulk correction
[2] = target: T1, mouse serum albumin (mSA, Sigma-Aldrich …); assay: SPR, albumin immobilized on CM5, scFv as analyte, 1:1 fit, pH 5.5; biphasic binding corrected with bulk correction
[3] = target: T1, mouse serum albumin (mSA, Sigma-Aldrich …); assay: SPR, albumin immobilized on CM5, scFv as analyte, multi-cycle, 1:1 Langmuir, pH 5.5
[4] = target: T2, human serum albumin (hSA, Sigma-Aldrich A3782) (human, UniProt P02768 25-609); assay: as above
[5] = target: T3, cynomolgus monkey serum albumin (cSA, Molecular Innovations CYSA) (cynomolgus monkey); assay: as above
[6] = target: T1, mouse serum albumin (mSA, Sigma-Aldrich …); assay: SPR, albumin immobilized on CM5, scFv as analyte, multi-cycle, 1:1 Langmuir, pH 7.4
[7] = target: T2, human serum albumin (hSA, Sigma-Aldrich …); assay: as above
[8] = target: T3, cynomolgus monkey serum albumin (cSA, …); assay: as above
[9] = target: T4, plasma-membranous human MSLN on cell lines (H226, HPAC, H292, OVCAR-3, MeT-5A) (human, UniProt Q13421 296-598); assay: cell-based or functional assay
[10] = target: T5, human recombinant CD3ε protein (Sino Biological) (human, UniProt P07766 23-126); assay: SPR, CD3ε amine-coupled to CM5, antibody injected
T5 construct: Bought protein; also called recombinant human CD3ε; human CD3ε

[11] = target: soluble mesothelin (sMSLN); assay: cell-based or functional assay
[12] = target: T4, plasma-membranous human MSLN on cell …; assay: cell-based or functional assay; remark: listed apart in the source
[13] = target: T4, plasma-membranous human MSLN on cell …; assay: flow cytometry on H226 cells
[14] = target: T4, plasma-membranous human MSLN on cell …; assay: cell-based or functional assay; remark: listed apart in the source
[15] = target: T5, human recombinant CD3ε protein (Sino …); assay: SPR, CD3ε amine-coupled to CM5, antibody injected; footnote: ka1 of a two-state fitting model
[16] = target: T4, plasma-membranous human MSLN on cell …; assay: flow cytometry on HPAC cells
[17] = target: T4, plasma-membranous human MSLN on cell …; assay: cell-based or functional assay; remark: listed apart in the source
[18] = target: T4, plasma-membranous human MSLN on cell …; assay: flow cytometry on H292 cells, protein L-PE, 4PL fit
[19] = target: T5, human recombinant CD3ε protein (Sino …); assay: SPR, CD3ε amine-coupled to CM5, antibody injected; footnote: kd1 of a two-state fitting model
[20] = target: T4, plasma-membranous human MSLN on cell …; assay: flow cytometry on H292 cells
[21] = target: T4, plasma-membranous human MSLN on cell …; assay: cell-based or functional assay; remark: listed apart in the source
[22] = target: T4, plasma-membranous human MSLN on cell …; assay: flow cytometry on H226 cells, protein L-PE, 4PL fit
[23] = target: T4, plasma-membranous human MSLN on cell …; assay: flow cytometry on HPAC cells, protein L-PE, 4PL fit
[24] = target: T4, plasma-membranous human MSLN on cell …; assay: cell-based or functional assay; remark: listed apart in the source
[25] = target: T6, recombinant human MSLN (purchased from Peprotech) (human, UniProt Q13421 296-598, limits assumed); assay: SPR (Biacore T200), human MSLN; which of the two formats (MSLN immobilized / antibody captured) not given
T6 construct: Bought protein; also called recombinant human mesothelin

[26] = target: T4, plasma-membranous human MSLN on cell …; assay: flow cytometry on Met-5A cells, protein L-PE, 4PL fit

B1: anti-hSA scFv PRO2155 (domain 19-04-A10-sc02) (scFv, V domains shown)
VH: EVQLVESGGGLVQPGGSLRLSCAASGFSLSSYAMNWVRQAPGKGLEWIGHINAGDIAYYATWAKGRFTISRDNSKNTVYLQMNSLRAEDTAVYFCARGAGGFSTGPFKLWGQGTLVTVSS
VL: AFELTQSPSSLSASVGDRVTITCQASESINSRLAWYQQKPGQPPKLLIYDASDLTSGVPSRFSGSGSGTDFTLTISSLQPEDFATYYCQGYGGSSTTTFGGGTKLTVLG
notes: Tested as scFv
Q: How did the Kd [1] turn out when B1 was run?
A: 9000 pM

Q: What about the Kd [2] of the same binder?
A: 2500 pM

Q: What about the koff [3] of the same binder?
A: 0.0002 s⁻¹

Q: And the kon [3]?
A: 78000 M⁻¹ s⁻¹

Q: What about the Kd [4] of the same binder?
A: 3300 pM

Q: What about the koff [4] of the same binder?
A: 0.003 s⁻¹

Q: And the kon [4]?
A: 900000 M⁻¹ s⁻¹

Q: What about the Kd [5] of the same binder?
A: 2300 pM

Q: What about the koff [5] of the same binder?
A: 0.0021 s⁻¹

Q: And the kon [5]?
A: 910000 M⁻¹ s⁻¹

Q: What about the koff [6] of the same binder?
A: 0.00029 s⁻¹

Q: What about the kon [6] of the same binder?
A: 32000 M⁻¹ s⁻¹

Q: What about the Kd [7] of the same binder?
A: 2200 pM

Q: What about the koff [7] of the same binder?
A: 0.0012 s⁻¹

Q: And the kon [7]?
A: 550000 M⁻¹ s⁻¹

Q: What about the Kd [8] of the same binder?
A: 1600 pM

Q: And the koff [8]?
A: 0.00091 s⁻¹

Q: And the kon [8]?
A: 580000 M⁻¹ s⁻¹

B2: PRO2000 (MATCH4, biMSLNhigh KD×CD3×hSA) (other)
chain 1: DIQMTQSPSSLSASVGDRVTITCQASQNIYSNLAWYQQKPGKAPKLLIYDASDLASGVPSRFSGSGSGTDFTLTISSLQPEDFATYYCQQVRSSSDIDNPFGTGTKVTVLGGGGGSGGGGSGGGGSGGGGSQVQLVESGGGLVQPGGSLRLSCAASGFSLSSYAMGWVRQAPGKGLEWIGYISTINNTYYASWAKGRFTISRDNSKNTVYLQMNSLRAEDTAVYYCAREIRSGWVDYGFSIWGQGTLVTVSSGGGGSGGGGSEVQLVESGGGLVQPGGSLRLSCAASGFSLSSYDMSWVRQAPGKGLAWIGASYASGPTYYASWAKGRFTISRDNSKNTVYLQMNSLRAEDTATYFCARGGWTGTSHSNIWGQGTLVTVSSGGGSGGGSEVQLVESGGGLVQPGGSLRLSCAASGFSFSSSYWICWVRQAPGKCLEWVGCVFTGDGTTYYASWAKGRFTISRDNSKNTVYLQMNSLRAEDTATYFCARPVSVYYYGMDLWGQGTLVTVSS
chain 2: DIQMTQSPSSLSASVGDRVTITCQASQNIYSNLAWYQQKPGKAPKLLIYDASDLASGVPSRFSGSGSGTDFTLTISSLQPEDFATYYCQQVRSSSDIDNPFGTGTKVTVLGGGGGSGGGGSGGGGSGGGGSQVQLVESGGGLVQPGGSLRLSCAASGFSLSSYAMGWVRQAPGKGLEWIGYISTINNTYYASWAKGRFTISRDNSKNTVYLQMNSLRAEDTAVYYCAREIRSGWVDYGFSIWGQGTLVTVSSGGGGSGGGGSDVVMTQSPSSLSASVGDRVTITCQASQIISSRSAWYQQKPGQPPKLLIYQASKLASGVPSRFSGSGSGTDFTLTISSLQPEDFATYYCQCTYIDSNFGAFGCGTKLTVLGGGSGGSDIQMTQSPSSLSASVGDRVTITCQSSQSVFSNNYLAWFQQKPGQSPKRLIYSASTLASGVPSRFSGSGSGTDFTLTISSLQPEDFATYYCLGSYACSSADCYVFGTGTKVTVLG
notes: Heterodimer; also called biMSLN.CD3
Q: What does the source list for B2?
A: EC50 CD8+ T cell activation, H292 cells [9]: 114 pM; EC50 CD8+ T cell activation, HPAC cells [9]: 12.2 pM; EC50 target cell killing, H292 cells [9]: 652 pM; EC50 target cell killing, HPAC cells [9]: 40.8 pM; Kd [10]: 20000 pM; fold reduction of H226 killing potency with 500 ng/ml sMSLN [11]: 17 fold; shift of H226 killing potency with 100 ng/ml sMSLN [11]: 5 fold; fold CD8+ T cell activation potency against PRO1872, HPAC cells [12]: 4 fold; fold killing potency against PRO1872, H226 cells [12]: 75 fold; fold binding against PRO1872 [13]: 3 fold; EC50 H226 target cell killing, 50 ng/ml soluble mesothelin [14]: 31.2 pM; EC50 H226 target cell killing, 500 ng/ml soluble mesothelin [14]: 165 pM; EC50 H226 target cell killing, no mesothelin [14]: 9.73 pM; kon [15]: 117000 M⁻¹ s⁻¹; fold binding against PRO1872 [16]: 1.5 to 2 fold; EC50 CD8+ T cell activation, Met-5A cells [17]: 544 pM; EC50 target cell killing, H226 cells (flow cytometry cytotoxicity assay with PBMCs) [17]: 0.07 pM; EC50 target cell killing, Met-5A cells [17]: 145 pM; EC50 [18]: 1030 pM; max. binding (MFI) [18]: 6960 MFI; koff [19]: 0.00391 s⁻¹; fold lower binding against PRO1872 [20]: 2 fold; EC50 CD8+ T cell activation with H226 cells, 50 ng/ml MSLN [21]: 7.85 pM; EC50 CD8+ T cell activation with H226 cells, 500 ng/ml MSLN [21]: 42.4 pM; EC50 CD8+ T cell activation with H226 cells, no MSLN [21]: 1.99 pM; EC50 [22]: 659 pM; max. binding (MFI) [22]: 362000 MFI; EC50 [23]: 1480 pM; max. binding (MFI) [23]: 17500 MFI; EC50 target cell killing, H226 cells, 100 ng/ml sMSLN [24]: 3.45 pM; EC50 target cell killing, H226 cells, no sMSLN [24]: 0.7 pM; max. killing, H226 cells, 100 ng/ml sMSLN [24]: 58.5%; max. killing, H226 cells, no sMSLN [24]: 49.4%; Kd [25]: 1060 pM; koff [25]: 0.000421 s⁻¹; kon [25]: 398000 M⁻¹ s⁻¹; EC50 [26]: 128 pM; max. binding (MFI) [26]: 7950 MFI

B3: PRO2100 (MATCH4) (other)
chain 1: B2 chain 1 with N186A
chain 2: B2 chain 2 with N186A
notes: Variant of PRO2000 with anti-MSLN 54-01-G02-sc01 N66A (potential glycosylation site mutated)
Q: What does the source list for B3?
A: shift of H226 killing potency with 100 ng/ml sMSLN [11]: 2 fold; fold binding against PRO1872 [13]: 3 fold; fold binding against PRO1872 [16]: 1.5 to 2 fold; EC50 [18]: 1300 pM; max. binding (MFI) [18]: 6250 MFI; fold lower binding against PRO1872 [20]: 2 fold; EC50 [22]: 524 pM; max. binding (MFI) [22]: 363000 MFI; EC50 [23]: 1010 pM; max. binding (MFI) [23]: 18000 MFI; EC50 target cell killing, H226 cells, 100 ng/ml sMSLN [24]: 3.56 pM; EC50 target cell killing, H226 cells, no sMSLN [24]: 1.54 pM; max. killing, H226 cells, 100 ng/ml sMSLN [24]: 58.9%; max. killing, H226 cells, no sMSLN [24]: 46.3%; EC50 [26]: 62.8 pM; max. binding (MFI) [26]: 7480 MFI
